Biological target: HLA-A*02:01 (Homo sapiens, UniProt P04439, D140Y/D185E/D98H/E176V/E277Q/G131W/G231S/I119V/I121R/I166T/I218V/L300P/L318F/N151K/N90K/P208A/P217A/Q86G/Q94H/R138H/R169H/T345S)
Assay: MHC binding assay (UV-ligand exchange, β2m ELISA, peptide exchange yield)
Conditions: MHC class I binding score; binding to HLA-A*02:01 ranged by peptide exchange yield (UV-ligand exchange, β2m ELISA)
Outline: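 Binding is expressed as peptide exchange yield: stabilized MHC complexes were quantified by β2m ELISA, with a 450 nm TMB read-out on streptavidin-coated plates. Complexes came from UV-ligand exchange, where UV irradiation cleaves a photolabile peptide so the candidate peptide can load.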

Substance	Peptide exchange
486 (AVMESIQGV; listed as Homo sapiens) [compound 486]	″+++″ (≧50% = +++)
487 (LLINSVFHV; listed as Homo sapiens) [compound 487]	″+++″ (≧50% = +++)
488 (FLAEDPKVTL; listed as Homo sapiens) [compound 488]	″+++″ (≧50% = +++)
490 (FLLQHVQEL; listed as Homo sapiens) [compound 490]	″+++″ (≧50% = +++)
491 (GLNDRSDAV; listed as Homo sapiens) [compound 491]	″++″ (≧20% = ++)
492 (SLFDGFADGLGV; listed as Homo sapiens) [compound 492]	″+++″ (≧50% = +++)
493 (GLLGEKTQDLIGV; listed as Homo sapiens) [compound 493]	″+++″ (≧50% = +++)
494 (ALQPEPIKV; listed as Homo sapiens) [compound 494]	″++″ (≧20% = ++)
495 (FIFSEKPVFV; listed as Homo sapiens) [compound 495]	″+++″ (≧50% = +++)
496 (FLVEKQPPQV; listed as Homo sapiens) [compound 496]	″+++″ (≧50% = +++)
497 (GLLEKLTAI; listed as Homo sapiens) [compound 497]	″+++″ (≧50% = +++)
498 (KLWTGGLDNTV; listed as Homo sapiens) [compound 498]	″+++″ (≧50% = +++)
500 (SLMEDQVLQL; listed as Homo sapiens) [compound 500]	″+++″ (≧50% = +++)
501 (LLDPNVKSIFV; listed as Homo sapiens) [compound 501]	″+++″ (≧50% = +++)
502 (RLLAQVPGL; listed as Homo sapiens) [compound 502]	″+++″ (≧50% = +++)
503 (SLNHFTHSV; listed as Homo sapiens) [compound 503]	″+++″ (≧50% = +++)
504 (GLSDGNPSL; listed as Homo sapiens) [compound 504]	″++″ (≧20% = ++)
505 (SLAPGDVVRQV; listed as Homo sapiens) [compound 505]	″++″ (≧20% = ++)
506 (KLLGKVETA; listed as Homo sapiens) [compound 506]	″+++″ (≧50% = +++)
507 (KLIDDQDISISL; listed as Homo sapiens) [compound 507]	″+++″ (≧50% = +++)
508 (ILAQEQLVVGV; listed as Homo sapiens) [compound 508]	″+++″ (≧50% = +++)
509 (FLFDTKPLIV; listed as Homo sapiens) [compound 509]	″+++″ (≧50% = +++)
510 (KLYSVVSQL; listed as Homo sapiens) [compound 510]	″++″ (≧20% = ++)
512 (SLSEIVPCL; listed as Homo sapiens) [compound 512]	″+++″ (≧50% = +++)

Substance	Peptide exchange
513 (SLWPSPEQL; listed as Homo sapiens) [compound 513]	″++″ (≧20% = ++)
514 (ILVDWLVQV; listed as Homo sapiens) [compound 514]	″+++″ (≧50% = +++)
515 (LLQELVLFL; listed as Homo sapiens) [compound 515]	″+++″ (≧50% = +++)
516 (AVGPASILKEV; listed as Homo sapiens) [compound 516]	″++″ (≧20% = ++)
517 (LLMPIPEGLTL; listed as Homo sapiens) [compound 517]	″+++″ (≧50% = +++)
519 (GLLHLTLLL; listed as Homo sapiens) [compound 519]	″+++″ (≧50% = +++)
520 (LAVHPSGVAL; listed as Homo sapiens) [compound 520]	″+″ (≧10% = +)
521 (MLLTKLPTI; listed as Homo sapiens) [compound 521]	″+++″ (≧50% = +++)
522 (TLWYRSPEV; listed as Homo sapiens) [compound 522]	″++″ (≧20% = ++)
523 (YQIPRTFTL; listed as Homo sapiens) [compound 523]	″++″ (≧20% = ++)
524 (ALIENLTHQI; listed as Homo sapiens) [compound 524]	″++″ (≧20% = ++)
525 (VLLEAGEGLVTI; listed as Homo sapiens) [compound 525]	″+++″ (≧50% = +++)
526 (RLAEVGQYEQV; listed as Homo sapiens) [compound 526]	″++″ (≧20% = ++)
527 (FLLEPGNLEV; listed as Homo sapiens) [compound 527]	″++++″ (≧75% = ++++)
528 (SVAEGRALMSV; listed as Homo sapiens) [compound 528]	″+++″ (≧50% = +++)
529 (LLADELITV; listed as Homo sapiens) [compound 529]	″+++″ (≧50% = +++)
530 (VMYADIGGMDI; listed as Homo sapiens) [compound 530]	″+++″ (≧50% = +++)
531 (YTLPIASSIRL; listed as Homo sapiens) [compound 531]	″+++″ (≧50% = +++)
537 (TLAPGEVLRSV; listed as Homo sapiens) [compound 537]	″+++″ (≧50% = +++)
538 (LLLAHIIAL; listed as Homo sapiens) [compound 538]	″++″ (≧20% = ++)
539 (ALFDAQAQV; listed as Homo sapiens) [compound 539]	″+++″ (≧50% = +++)
541 (SMLEPVPEL; listed as Homo sapiens) [compound 541]	″+++″ (≧50% = +++)
542 (RVWDISTVSSV; listed as Homo sapiens) [compound 542]	″+++″ (≧50% = +++)
543 (GLLPTPITQQASL; listed as Homo sapiens) [compound 543]	″+++″ (≧50% = +++)

Further lines, results first:

Peptide exchange	Substance
″+++″ (≧50% = +++)	544 (LLWDVPAPSL; listed as Homo sapiens) [compound 544]
″+++″ (≧50% = +++)	545 (LLADLLHNV; listed as Homo sapiens) [compound 545]
″+++″ (≧50% = +++)	546 (VMIAGKVAVV; listed as Homo sapiens) [compound 546]
″+++″ (≧50% = +++)	547 (TLDITPHTV; listed as Homo sapiens) [compound 547]
″++″ (≧20% = ++)	548 (ALWENPESGEL; listed as Homo sapiens) [compound 548]
″+++″ (≧50% = +++)	549 (AMLENASDIKL; listed as Homo sapiens) [compound 549]
″+++″ (≧50% = +++)	550 (FLYDEIEAEVNL; listed as Homo sapiens) [compound 550]
″+++″ (≧50% = +++)	551 (KLYESLLPFA; listed as Homo sapiens) [compound 551]
″++++″ (≧75% = ++++)	552 (GLLDLPFRVGV; listed as Homo sapiens) [compound 552]
″++++″ (≧75% = ++++)	553 (SLLNQDLHWSL; listed as Homo sapiens) [compound 553]
″+++″ (≧50% = +++)	554 (LLMPSSEDLLL; listed as Homo sapiens) [compound 554]
″+++″ (≧50% = +++)	555 (YVLEGLKSV; listed as Homo sapiens) [compound 555]
″+++″ (≧50% = +++)	556 (FLTDLEDLTL; listed as Homo sapiens) [compound 556]
″+++″ (≧50% = +++)	557 (KLYDDMIRL; listed as Homo sapiens) [compound 557]
″+++″ (≧50% = +++)	558 (GLLENIPRV; listed as Homo sapiens) [compound 558]
″++″ (≧20% = ++)	559 (VTVPPGPSL; listed as Homo sapiens) [compound 559]
″+++″ (≧50% = +++)	560 (ALWDIETGQQTTT; listed as Homo sapiens) [compound 560]
″+++″ (≧50% = +++)	561 (YLQLTQSEL; listed as Homo sapiens) [compound 561]
″+++″ (≧50% = +++)	562 (YLEELPEKLKL; listed as Homo sapiens) [compound 562]
″+++″ (≧50% = +++)	563 (WLLPYNGVTV; listed as Homo sapiens) [compound 563]
″+++″ (≧50% = +++)	564 (TVTNAVVTV; listed as Homo sapiens) [compound 564]
″++″ (≧20% = ++)	565 (ALQETPTSV; listed as Homo sapiens) [compound 565]
″++″ (≧20% = ++)	566 (VIADGGIQNV; listed as Homo sapiens) [compound 566]
″+++″ (≧50% = +++)	567 (SLLPLDDIVRV; listed as Homo sapiens) [compound 567]
″++++″ (≧75% = ++++)	568 (TLYDIAHTPGV; listed as Homo sapiens) [compound 568]
″+++″ (≧50% = +++)	569 (KLVDRTWTL; listed as Homo sapiens) [compound 569]
″++″ (≧20% = ++)	570 (ALANQIPTV; listed as Homo sapiens) [compound 570]
″+++″ (≧50% = +++)	571 (LLLTTIPQI; listed as Homo sapiens) [compound 571]
″+++″ (≧50% = +++)	572 (ALADLIEKELSV; listed as Homo sapiens) [compound 572]
